Experimental data from PMC12754631, “Cis‐2‐decenoic acid modulates Pseudomonas aeruginosa virulence through a noncanonical transcriptional regulator” (mLife, 2025).

Key:
FadD1 = biological target: T1, FadD1 (Pseudomonas aeruginosa, UniProt Q9HYU4); assay: microscale thermophoresis; assay type: binding
T1 construct: expressed in E. coli BL21, Ni-NTA, His-tag removed by TEV protease; labelled for MST

[1] = biological target: T2, FadD1 (Pseudomonas aeruginosa PAO1) (UniProt Q9HYU4); assay: EMSA
T2 sequence: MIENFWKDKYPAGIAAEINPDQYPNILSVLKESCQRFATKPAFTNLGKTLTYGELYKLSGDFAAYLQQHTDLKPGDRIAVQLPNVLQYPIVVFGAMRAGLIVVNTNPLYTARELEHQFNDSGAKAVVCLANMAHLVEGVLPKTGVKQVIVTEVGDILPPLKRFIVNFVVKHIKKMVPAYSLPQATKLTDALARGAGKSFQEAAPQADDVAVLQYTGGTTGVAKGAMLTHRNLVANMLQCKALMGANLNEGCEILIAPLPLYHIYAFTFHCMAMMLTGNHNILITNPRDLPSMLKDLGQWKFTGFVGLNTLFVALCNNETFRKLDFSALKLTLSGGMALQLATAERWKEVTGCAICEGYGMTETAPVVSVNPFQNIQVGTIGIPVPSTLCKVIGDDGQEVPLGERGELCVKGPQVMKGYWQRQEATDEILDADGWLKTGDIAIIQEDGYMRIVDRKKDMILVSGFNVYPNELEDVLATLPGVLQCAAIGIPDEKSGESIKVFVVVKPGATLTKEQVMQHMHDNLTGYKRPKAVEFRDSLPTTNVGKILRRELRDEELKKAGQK

Compound	Kd (FadD1) [nM]	binding [1]
CCCCCCCCC/C=C\C(=O)O [BDSF]	1650 ± 210	
CCCCCCC/C=C\C(=O)O [cis-DA]	1060 ± 140	
ATCTCATGCAGATGCCGGAGTTCTCCCTGAACTTCGCCTTGTTGCATACATGGCAAGCGCGCCATGGCGGAGCGCGACGGCTGAATATCTAGCACGAAAGTGAAAATAGAAAAGAACGAGATTTCATAAGGGCGGGCGCCGTTTTTAACAGGTTGTTCATGCGTCGCCGCTAGTTTGTTGTCTTTCACAGAACTGTTCGATGAACGGACTTGTTGCATTAGAACAATAAGTCCCGATGGAACTTCGGGGGACCGTGTGAAGCGTTCGCTGTTCAATTGTGCGCAC (double strand) [PA0692 promoter]		binds
GTCGGCGTTTCATGGAATTGTCACAACCGCACAGTATCGCTTGCGGTAAAGCGGCCCAGGTGGTCGAACGTTGTCATAGGGAGGGGGATGCTCGATGGCTGAAGGCTGCGTCCTGAACGGTGCTGGCATAACAGATAGGGTTGCCATGATTTTGCCGTATCGGCAAGGCTGCGCGCTTGACAGCGTCATACCCCGGGCCAATTCTGCTGTGATGCATTTTATCGATCAGGGCTTACTGCAATGAGGAATGACGGAGGCTTTTTGCTGTGG (double strand) [rhlR promoter]		no binding
GTGCGCACAATTGAACAGCGAACGCTTCACACGGTCCCCCGAAGTTCCATCGGGACTTATTGTTCTAATGCAACAAGTCCGTTCATCGAACAGTTCTGTGAAAGACAACAAACTAGCGGCGACGCATGAACAACCTGTTAAAAACGGCGCTATGAAATCTCGTTCTTTTCTATTTTCACTTTCGTGCTAGATATTCAGCCGTCGCGCTCCGCCATGGCGCGCTTGCCATGTATGCAACAAGGCGAAGTTCAGGGAGAACTCCGGCATCTGCATGAGAT (double strand) [PA0692 promoter, AGGGCGG deleted]		no binding
